Molecular target: FhuA 13R1 (Escherichia coli) (UniProt P06971)
Assay: continuous wave EPR of spin-labelled protein

Sequence of UniProt P06971 (P06971 34-747): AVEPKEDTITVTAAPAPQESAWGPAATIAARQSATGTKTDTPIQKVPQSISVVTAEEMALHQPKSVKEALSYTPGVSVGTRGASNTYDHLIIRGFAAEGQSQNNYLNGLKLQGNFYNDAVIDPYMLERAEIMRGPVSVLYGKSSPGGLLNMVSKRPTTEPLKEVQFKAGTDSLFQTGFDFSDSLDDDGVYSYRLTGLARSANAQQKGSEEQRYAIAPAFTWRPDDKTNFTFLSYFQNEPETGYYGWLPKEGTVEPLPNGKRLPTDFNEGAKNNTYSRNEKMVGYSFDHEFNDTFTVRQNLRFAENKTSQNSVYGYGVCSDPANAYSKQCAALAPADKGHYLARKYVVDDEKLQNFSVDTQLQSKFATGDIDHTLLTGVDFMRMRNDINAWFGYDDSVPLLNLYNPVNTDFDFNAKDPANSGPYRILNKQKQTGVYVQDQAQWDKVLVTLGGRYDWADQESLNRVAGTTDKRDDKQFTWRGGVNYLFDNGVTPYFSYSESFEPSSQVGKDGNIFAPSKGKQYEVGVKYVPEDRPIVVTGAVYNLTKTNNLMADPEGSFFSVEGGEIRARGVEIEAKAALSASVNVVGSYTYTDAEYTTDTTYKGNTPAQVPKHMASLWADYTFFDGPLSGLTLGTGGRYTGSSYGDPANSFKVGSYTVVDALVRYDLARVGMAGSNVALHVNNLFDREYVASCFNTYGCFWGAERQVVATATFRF

Substance: TonB (103-239) (from UniProt P02929 103-239) (domain or fragment)
- fraction of FhuA bound to TonB: 95%

Source: PMC5811355
